Test results from patent US20040213780A1.

Legend:
Test in all cases: cell-based or functional assay
[1] = target: purified Sp1 (Promega Corp.) (UniProt P08047)
[2] = target: Sp1 in human brain tissue (endogenous) (human) (UniProt P08047)
[3] = target: Sp1 in nuclear extracts of primary rat striatal neurons (endogenous) (rat) (UniProt Q01714)
Sequence of Sp1 in nuclear extracts of primary rat striatal neurons (endogenous) (rat) (Q01714 2-786 limits assumed): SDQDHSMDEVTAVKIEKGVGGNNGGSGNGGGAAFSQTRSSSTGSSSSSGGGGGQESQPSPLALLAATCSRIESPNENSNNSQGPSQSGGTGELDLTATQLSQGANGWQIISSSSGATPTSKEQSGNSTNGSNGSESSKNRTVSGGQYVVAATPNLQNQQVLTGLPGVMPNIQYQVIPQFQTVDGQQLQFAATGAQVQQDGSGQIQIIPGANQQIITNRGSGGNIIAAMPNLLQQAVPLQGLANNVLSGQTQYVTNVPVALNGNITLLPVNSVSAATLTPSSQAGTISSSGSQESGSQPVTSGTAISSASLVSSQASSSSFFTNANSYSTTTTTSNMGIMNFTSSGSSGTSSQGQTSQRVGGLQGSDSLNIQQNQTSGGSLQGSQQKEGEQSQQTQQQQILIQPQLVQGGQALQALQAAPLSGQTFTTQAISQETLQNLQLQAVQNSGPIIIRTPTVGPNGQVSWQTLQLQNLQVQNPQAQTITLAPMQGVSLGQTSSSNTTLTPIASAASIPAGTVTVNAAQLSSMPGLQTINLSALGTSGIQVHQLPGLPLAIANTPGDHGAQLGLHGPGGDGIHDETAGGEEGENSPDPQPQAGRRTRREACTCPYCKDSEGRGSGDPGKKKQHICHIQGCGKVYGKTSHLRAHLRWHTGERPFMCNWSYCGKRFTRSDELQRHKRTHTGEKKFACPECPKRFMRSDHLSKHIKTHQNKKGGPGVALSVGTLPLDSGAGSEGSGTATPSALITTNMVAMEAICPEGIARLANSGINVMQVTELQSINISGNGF

Sequence of purified Sp1 (Promega Corp.) (P08047 8-785 limits assumed): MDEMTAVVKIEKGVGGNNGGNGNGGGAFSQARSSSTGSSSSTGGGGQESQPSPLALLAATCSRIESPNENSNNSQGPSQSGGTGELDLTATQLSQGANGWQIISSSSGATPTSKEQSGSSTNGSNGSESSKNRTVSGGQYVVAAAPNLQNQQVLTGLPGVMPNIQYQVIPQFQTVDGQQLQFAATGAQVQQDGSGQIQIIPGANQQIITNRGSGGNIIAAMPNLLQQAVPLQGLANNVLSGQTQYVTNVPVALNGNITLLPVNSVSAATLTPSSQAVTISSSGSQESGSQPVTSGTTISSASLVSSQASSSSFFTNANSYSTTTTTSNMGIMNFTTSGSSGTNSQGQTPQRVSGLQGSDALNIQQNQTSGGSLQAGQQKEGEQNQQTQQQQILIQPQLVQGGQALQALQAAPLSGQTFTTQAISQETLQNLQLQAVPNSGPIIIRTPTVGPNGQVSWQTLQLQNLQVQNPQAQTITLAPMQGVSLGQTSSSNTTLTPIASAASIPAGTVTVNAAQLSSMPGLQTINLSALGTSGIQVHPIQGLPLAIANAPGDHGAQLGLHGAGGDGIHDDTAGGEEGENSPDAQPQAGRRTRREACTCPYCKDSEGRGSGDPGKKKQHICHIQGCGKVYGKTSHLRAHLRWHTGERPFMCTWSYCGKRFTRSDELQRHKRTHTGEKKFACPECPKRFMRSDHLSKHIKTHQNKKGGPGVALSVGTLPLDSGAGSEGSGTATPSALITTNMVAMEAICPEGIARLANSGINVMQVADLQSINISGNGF
Sequence of Sp1 in human brain tissue (endogenous) (human) (P08047 2-785 limits assumed): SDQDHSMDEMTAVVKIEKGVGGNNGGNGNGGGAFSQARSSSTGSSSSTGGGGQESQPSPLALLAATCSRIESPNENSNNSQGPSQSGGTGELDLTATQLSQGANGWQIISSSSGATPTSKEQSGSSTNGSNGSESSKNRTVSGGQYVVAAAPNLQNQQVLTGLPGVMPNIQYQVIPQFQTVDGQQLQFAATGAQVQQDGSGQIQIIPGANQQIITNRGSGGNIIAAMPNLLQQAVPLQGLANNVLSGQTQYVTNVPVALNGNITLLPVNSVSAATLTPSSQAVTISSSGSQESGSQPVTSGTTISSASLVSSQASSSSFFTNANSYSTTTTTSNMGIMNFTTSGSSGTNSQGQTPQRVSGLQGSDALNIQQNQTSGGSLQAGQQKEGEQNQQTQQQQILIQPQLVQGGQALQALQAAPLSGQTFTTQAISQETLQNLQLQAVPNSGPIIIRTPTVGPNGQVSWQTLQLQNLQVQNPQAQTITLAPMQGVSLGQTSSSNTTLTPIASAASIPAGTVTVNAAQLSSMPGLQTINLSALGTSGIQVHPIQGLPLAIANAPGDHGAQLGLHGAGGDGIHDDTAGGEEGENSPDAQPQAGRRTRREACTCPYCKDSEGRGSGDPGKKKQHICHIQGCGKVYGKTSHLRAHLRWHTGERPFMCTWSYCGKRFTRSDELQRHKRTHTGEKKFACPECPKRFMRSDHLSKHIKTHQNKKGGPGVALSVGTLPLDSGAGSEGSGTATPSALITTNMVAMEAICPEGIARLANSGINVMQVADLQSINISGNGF

For “glutathione S-transferase (GST)-huntingtin fusion protein with 20 glutamines (from UniProt P42858 1-88)”, the reduction in Sp1 binding to a labeled consensus Sp1 site (EMSA with purified proteins) [1] was 20%.

“glutathione S-transferase (GST)-huntingtin fusion protein with 51 glutamines (from UniProt P42858 1-88)” gave an inhibition of Sp1 binding to a labeled consensus Sp1 site (EMSA with purified proteins) [1] of 70%.

For “huntingtin in human HD brain tissue (endogenous) (from UniProt P42858 1-3142)”, the decrease of Sp1 binding to its D2 binding site (EMSA, nuclear extracts of caudate, grade 1 HD brain against control brain) [2] was 39% and the decrease of Sp1 binding to its D2 binding site (EMSA, nuclear extracts of caudate, grade 4 HD brain against control brain) [2] was 48%.

“mutant full-length huntingtin with 75 glutamines (HttQ75), P42858 1-3142” was tested, and the inhibition of Sp1 binding to a labeled D2 promoter fragment (EMSA, nuclear extracts of transfected striatal cells) [3] was 55%.
